The supplement of paper PMC10724198
± gives the standard deviation of the averaged measurements.

Experiments:
Saccharomyces cerevisiae [1] = assay: protein stability index of tFT-peptide fusion (C-terminal peptide) (PSI (0-1 scale)); higher = more stable (slower turnover); details: genetic background: wild type; temperature: 30 C
Saccharomyces cerevisiae [2] = assay: as above
Experimental: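 MPS profiling in S. cerevisiae of the tFT-X12 degron library: putative degron peptides plus stable controls, 12 aa, fused to the C-terminus of a sfGFP-mCherry timer. Cells are FACS-sorted into 8 mCherry/sfGFP bins and deep-sequenced. PSI runs from 0 (unstable) to 1 (stable). Backgrounds are wild type, das1Δ and doa10Δ at 30 °C, and wild type, das1Δ, cdc34-1 and cdc53-1 at 37 °C; 2-3 technical replicates each.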

[3] = genetic background: cdc34-1, temperature: 37 C
[4] = genetic background: cdc53-1, temperature: 37 C
[5] = genetic background: das1 deletion, temperature: 30 C
[6] = genetic background: das1 deletion, temperature: 37 C
[7] = genetic background: doa10 deletion, temperature: 30 C
[8] = genetic background: wild type, temperature: 30 C
[9] = genetic background: wild type, temperature: 37 C
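Also: PSI is a weighted mean of sequencing reads over stability bins, variants kept only with over 10 reads, mCherry proximal and sfGFP distal, peptide attached via GGGS linker.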

Sequence	protein stability index (Saccharomyces cerevisiae [1])	protein stability index (Saccharomyces cerevisiae [2]; [3])	protein stability index (Saccharomyces cerevisiae [2]; [4])	protein stability index (Saccharomyces cerevisiae [2]; [5])	protein stability index (Saccharomyces cerevisiae [2]; [6])	protein stability index (Saccharomyces cerevisiae [2]; [7])	protein stability index (Saccharomyces cerevisiae [2]; [8])	protein stability index (Saccharomyces cerevisiae [2]; [9])
VIQKKKKNKITS	0.346 ± 0.033	0.617 ± 0.004	0.729 ± 0.014	0.65 ± 0.022	0.7265 ± 0.0018	0.197 ± 0.011	0.238 ± 0.013	0.408 ± 0.016
VIVIQGFVFVLG	0.279 ± 0.073	0.2898 ± 0.0021	0.426 ± 0.033	0.267 ± 0.033	0.482 ± 0.0059	0.234 ± 0.0035	0.248 ± 0.035	0.421 ± 0.0092
VLFSVWFFLVLV	0.117 ± 0.017	0.0557 ± 0.017	0.0354 ± 0.0069	0.122 ± 0.032	0.134 ± 0.0075	0.241 ± 0.015	0.103 ± 0.035	0.127 ± 0.04
VLVLLVCVAALV	0.239 ± 0.0026	0.1393 ± 0.00032	0.222 ± 0.0053	0.163 ± 0.023	0.295 ± 0.017	0.1463 ± 0.00088	0.163 ± 0.025	0.244 ± 0.014
VLVRVIYLLVSG	0.347 ± 0.02	0.276 ± 0.007	0.373 ± 0.013	0.23 ± 0.038	0.469 ± 0.0053	0.178 ± 0.026	0.234 ± 0.029	0.404 ± 0.017
VLVWLRLRVGLR	0.3002 ± 0.00052	0.212 ± 0.025	0.322 ± 0.016	0.218 ± 0.045	0.381 ± 0.0098	0.199 ± 0.0058	0.213 ± 0.021	0.3468 ± 0.0019
VLYCRSCFLRVS	0.281 ± 0.021	0.543 ± 0.021	0.584 ± 0.015	0.436 ± 0.024	0.6292 ± 0.0028	0.1667 ± 0.0015	0.161 ± 0.0061	0.362 ± 0.023
VMIFYVLGRVWD	0.455 ± 0.0091	0.428 ± 0.0048	0.5209 ± 0.0028	0.293 ± 0.056	0.594 ± 0.025	0.27 ± 0.0079	0.314 ± 0.033	0.581 ± 0.082
VNFVLTLYPYLV	0.378 ± 0.014	0.512 ± 0.024	0.577 ± 0.019	0.507 ± 0.024	0.603 ± 0.02	0.275 ± 0.016	0.278 ± 0.02	0.4472 ± 0.00073
VPPLPPPGPPTF	0.699 ± 0.015	0.705 ± 0.0084	0.7583 ± 0.0011	0.667 ± 0.012	0.733 ± 0.014	0.683 ± 0.029	0.6765 ± 0.0056	0.708 ± 0.011
VQLLTRLKTPHP	0.733 ± 0.026	0.6608 ± 0.0013	0.7443 ± 0.0035	0.656 ± 0.016	0.719 ± 0.015	0.636 ± 0.021	0.65 ± 0.024	0.716 ± 0.021
VRDQGWILNMLL	0.485 ± 0.016	0.7266 ± 0.007	0.771 ± 0.024	0.651 ± 0.032	0.7546 ± 0.0011	0.3707 ± 0.0019	0.422 ± 0.028	0.639 ± 0.023
VRICVVLRVCWW	0.256 ± 0.092	0.0855 ± 0.0017	0.139 ± 0.00094	0.115 ± 0.034	0.217 ± 0.0071	0.117 ± 0.034	0.12 ± 0.024	0.18 ± 0.0089
VRINLLFVWFSR	0.396 ± 0.026	0.407 ± 0.0067	0.472 ± 0.028	0.331 ± 0.044	0.491 ± 0.012	0.359 ± 0.016	0.334 ± 0.04	0.464 ± 0.033
VRLSQVNRLICT	0.524 ± 0.052	0.554 ± 0.022	0.566 ± 0.065	0.437 ± 0.024	0.585 ± 0.021	0.394 ± 0.019	0.426 ± 0.0098	0.573 ± 0.017
VRRGAVWCCLCG	0.474 ± 0.011	0.666 ± 0.0079	0.73 ± 0.0094	0.623 ± 0.012	0.748 ± 0.004	0.368 ± 0.017	0.405 ± 0.014	0.633 ± 0.0059
VRVLAALVLCVV	0.312 ± 0.0089	0.159 ± 0.029	0.306 ± 0.021	0.217 ± 0.019	0.3799 ± 0.00079	0.156 ± 0.0081	0.189 ± 0.011	0.322 ± 0.011

Sequence	protein stability index (Saccharomyces cerevisiae [1])	protein stability index (Saccharomyces cerevisiae [2]; [3])	protein stability index (Saccharomyces cerevisiae [2]; [4])	protein stability index (Saccharomyces cerevisiae [2]; [5])	protein stability index (Saccharomyces cerevisiae [2]; [6])	protein stability index (Saccharomyces cerevisiae [2]; [7])	protein stability index (Saccharomyces cerevisiae [2]; [8])	protein stability index (Saccharomyces cerevisiae [2]; [9])
VRYCFFWVRAVV	0.278 ± 0.051	0.286 ± 0.027	0.335 ± 0.019	0.233 ± 0.04	0.4555 ± 0.0013	0.173 ± 0.0088	0.194 ± 0.022	0.3718 ± 0.0019
VTGYLSTLTMLC	0.3832 ± 0.0015	0.6 ± 0.015	0.654 ± 0.0097	0.551 ± 0.02	0.671 ± 0.023	0.231 ± 0.0097	0.247 ± 0.03	0.5014 ± 0.0011
VTWNFIVYVCCF	0.283 ± 0.011	0.164 ± 0.0058	0.204 ± 0.0029	0.209 ± 0.016	0.25776 ± 1.6e-05	0.189 ± 0.017	0.19 ± 0.014	0.219 ± 0.0045
VVFLWRCRLLLG	0.164 ± 0.019	0.276 ± 0.015	0.346 ± 0.015	0.213 ± 0.034	0.416 ± 0.0042	0.0938 ± 0.011	0.115 ± 0.027	0.154 ± 0.0056
VVFRCSSFFCLV	0.4449 ± 0.002	0.54 ± 0.0062	0.6156 ± 0.006	0.524 ± 0.029	0.622 ± 0.015	0.387 ± 0.033	0.405 ± 0.035	0.536 ± 0.0083
VVIYWFLPIIFA	0.23 ± 0.029	0.09487 ± 0.00071	0.0751 ± 0.015	0.163 ± 0.032	0.253 ± 0.018	0.266 ± 0.006	0.155 ± 0.021	0.224 ± 0.013
VVLGLFCVRMGT	0.522 ± 0.031	0.541 ± 0.018	0.606 ± 0.019	0.454 ± 0.031	0.6108 ± 0.0044	0.418 ± 0.01	0.451 ± 0.02	0.5718 ± 0.0034
VVLVGVAVCRLG	0.368 ± 0.011	0.4 ± 0.0065	0.47 ± 0.013	0.29 ± 0.025	0.4888 ± 0.0021	0.244 ± 0.01	0.277 ± 0.014	0.46 ± 0.0018
VVNFLVFRFFCI	0.285 ± 0.06	0.53 ± 0.046	0.531 ± 0.015	0.481 ± 0.029	0.649 ± 0.026	0.216 ± 0.016	0.217 ± 0.037	0.39 ± 0.018
VVPYPFLTLLNI	0.58 ± 0.12	0.417 ± 0.026	0.407 ± 0.029	0.403 ± 0.041	0.539 ± 0.014	0.589 ± 0.033	0.381 ± 0.012	0.492 ± 0.0084
VVRVSFSFCLSC	0.373 ± 0.015	0.476 ± 0.023	0.498 ± 0.045	0.48 ± 0.029	0.459 ± 0.021	0.408 ± 0.026	0.388 ± 0.029	0.425 ± 0.024
VVSVVVLVNSRG	0.441 ± 0.017	0.465 ± 0.029	0.501 ± 0.067	0.36 ± 0.023	0.5405 ± 0.0032	0.3414 ± 0.0024	0.373 ± 0.024	0.518 ± 0.0064
VVVLLLVVWFCL	0.379 ± 0.04	0.29 ± 0.014	0.4134 ± 0.0018	0.316 ± 0.027	0.428 ± 0.027	0.283 ± 0.0079	0.296 ± 0.025	0.391 ± 0.019
VVVWLFRIKSNV	0.425 ± 0.025	0.46 ± 0.012	0.586 ± 0.0096	0.358 ± 0.059	0.576 ± 0.005	0.279 ± 0.0084	0.318 ± 0.022	0.497 ± 0.026
VWGLWRLCVWGV	0.371 ± 0.057	0.3896 ± 0.0011	0.479 ± 0.0054	0.327 ± 0.036	0.5012 ± 0.0017	0.274 ± 0.0082	0.302 ± 0.025	0.477 ± 0.0086
VWLFSWSVVGGT	0.433 ± 0.02	0.436 ± 0.037	0.5425 ± 0.0026	0.369 ± 0.017	0.523 ± 0.012	0.369 ± 0.014	0.376 ± 0.0048	0.5069 ± 0.00074
